# Test results taken from US20150086555A1.
# B1: TCN-551 (5243_D01) (antibody, V domains shown)
# VH: EVQLVQSGSEVKKPGESLKISCKGSGYSFSNYWIGWVRHMPGKGLEWMGIIYPGDSDTRYSPSFQGQVTMSADKSSSTVYLQWSSLKASDTAIYYCARRGGHSFGYGSGGDTHSEFDSWGQGTLVTVSS
# VL: QSVLTQSPSVSAAPGQKVTISCSGSDSNIGDYFVCWYQHLPGKPPQLLIYENNKRPSGIPDRFSGSKSGTSATLGITGIQTGDEADYYCATWDGSLSAWVFGGGTKLTVL
# What was measured:
# Details in all cases: remark: other sources report otherwise
# [1] = target: recombinant soluble homotrimeric HA of A/Anhui/1/05 (H5N1) (Influenza A virus A/Anhui/1/2005(H5N1)); test: HA microarray, BCC supernatant
# [2] = target: recombinant soluble homotrimeric HA of A/California/4/09 (H1N1) (Influenza A virus A/California/04/2009(H1N1)); test: HA microarray, BCC supernatant
# [3] = target: recombinant soluble homotrimeric HA of A/Egypt/3300-NAMRU3/08 (H5N1) (Influenza A virus A/Egypt/3300-NAMRU3/2008(H5N1)); test: HA microarray, BCC supernatant
# [4] = target: recombinant soluble homotrimeric HA of A/Hong Kong/2108/03 (H9N2) (Influenza A virus A/HK/2108/2003(H9N2)); test: HA microarray, BCC supernatant
# [5] = target: recombinant soluble homotrimeric HA of A/Indonesia/5/05 (H5N1) (Influenza A virus A/Indonesia/5/2005(H5N1)); test: HA microarray, BCC supernatant
# [6] = target: recombinant soluble homotrimeric HA of A/Japan/305/57 (H2N2) (Influenza A virus A/Japan/305/1957(H2N2)); test: HA microarray, BCC supernatant
# [7] = target: recombinant soluble homotrimeric HA of A/Netherlands/219/03 (H7N7) (Influenza A virus A/Netherlands/219/03(H7N7)); test: HA microarray, BCC supernatant
# [8] = target: recombinant soluble homotrimeric HA of A/Solomon Islands/3/06 (H1N1) (Influenza A virus A/Solomon Islands/3/2006(H1N1)); test: HA microarray, BCC supernatant
# [9] = target: recombinant soluble homotrimeric HA of A/Vietnam/1203/04 (H5N1) (Influenza A virus A/VietNam/1203/2004(H5N1)); test: HA microarray, BCC supernatant
# [10] = target: recombinant soluble homotrimeric HA of A/Wisconsin/67/05 (H3N2) (Influenza A virus A/Wisconsin/67/2005(H3N2)); test: HA microarray, BCC supernatant
# [11] = target: recombinant soluble homotrimeric HA of A/duck/Yangzhou/02/05 (H8N4) (Influenza A virus A/duck/Yangzhou/02/2005(H8N4)); test: HA microarray, BCC supernatant
# [12] = target: recombinant soluble homotrimeric HA, A/Anhui/1/05 H5N1 (Influenza A virus A/Anhui/1/2005(H5N1)); test: microarray, transfection SN IgG, trimeric HA
# [13] = target: recombinant soluble homotrimeric HA, A/California/4/09 H1N1 (Influenza A virus A/California/04/2009(H1N1)); test: microarray, transfection SN IgG, trimeric HA
# [14] = target: recombinant soluble homotrimeric HA, A/Hong Kong/156/97 H5N1 (Influenza A virus A/Hong Kong/156/97 (H5N1)); test: microarray, transfection SN IgG, trimeric HA
# [15] = target: recombinant soluble homotrimeric HA, A/Japan/305/57 H2N2 (Influenza A virus A/Japan/305/1957(H2N2)); test: microarray, transfection SN IgG, trimeric HA
# [16] = target: recombinant soluble homotrimeric HA, A/Solomon Islands/3/06 H1N1 (Influenza A virus A/Solomon Islands/3/2006(H1N1)); test: microarray, transfection SN IgG, trimeric HA
# [17] = target: recombinant soluble homotrimeric HA, A/South Carolina/1/18 H1N1 (Influenza A virus A/South Carolina/1/18 (H1N1)); test: microarray, transfection SN IgG, trimeric HA
# [18] = target: recombinant soluble homotrimeric HA, A/Vietnam/1203/04 H5N1 (Influenza A virus A/VietNam/1203/2004(H5N1)); test: microarray, transfection SN IgG, trimeric HA
# [19] = target: recombinant homotrimeric HA A/Anhui/1/05 H5N1 (Influenza A virus A/Anhui/1/2005(H5N1)); test: protein microarray, purified IgG, trimeric HA
# [20] = target: recombinant homotrimeric HA A/California/4/09 H1N1 (Influenza A virus A/California/04/2009(H1N1)); test: protein microarray, purified IgG, trimeric HA
# [21] = target: recombinant homotrimeric HA A/Egypt/3300-NAMRU3/08 H5N1 (Influenza A virus A/Egypt/3300-NAMRU3/2008(H5N1)); test: protein microarray, purified IgG, trimeric HA
# [22] = target: recombinant homotrimeric HA A/Hong Kong/156/97 H5N1 (Influenza A virus A/Hong Kong/156/97 (H5N1)); test: protein microarray, purified IgG, trimeric HA
# [23] = target: recombinant homotrimeric HA A/Indonesia/5/05 H5N1 (Influenza A virus A/Indonesia/5/2005(H5N1)); test: protein microarray, purified IgG, trimeric HA
# [24] = target: recombinant homotrimeric HA A/Japan/305/57 H2N2 (Influenza A virus A/Japan/305/1957(H2N2)); test: protein microarray, purified IgG, trimeric HA
# [25] = target: recombinant homotrimeric HA A/Netherlands/219/03 H7N7 (Influenza A virus A/Netherlands/219/03(H7N7)); test: protein microarray, purified IgG, trimeric HA
# [26] = target: recombinant homotrimeric HA A/Solomon Islands/3/06 H1N1 (Influenza A virus A/Solomon Islands/3/2006(H1N1)); test: protein microarray, purified IgG, trimeric HA
# [27] = target: recombinant homotrimeric HA A/South Carolina/1/18 H1N1 (Influenza A virus A/South Carolina/1/18 (H1N1)); test: protein microarray, purified IgG, trimeric HA
# [28] = target: recombinant homotrimeric HA A/Vietnam/1203/04 H5N1 (Influenza A virus A/VietNam/1203/2004(H5N1)); test: protein microarray, purified IgG, trimeric HA
# [29] = target: hemagglutinin (HA) of influenza A/Japan/305/57 (H2N2) on whole virions (Influenza A virus A/Japan/305/1957(H2N2)), P03451; test: ELISA; BCC supernatant on coated inactivated whole virions
binder,measurement,setting,value
B1,Trimeric HA Binding: RLU,[1],4190 RLU
same,Trimeric HA Binding: RLU,[2],53400 RLU
same,Trimeric HA Binding: RLU,[3],47200 RLU
same,Trimeric HA Binding: RLU,[4],224 RLU
same,Trimeric HA Binding: RLU,[5],53500 RLU
same,Trimeric HA Binding: RLU,[6],22600 RLU
same,Trimeric HA Binding: RLU,[7],786 RLU
same,Trimeric HA Binding: RLU,[8],53800 RLU
same,Trimeric HA Binding: RLU,[9],4150 RLU
same,Trimeric HA Binding: RLU,[10],6840 RLU
same,Trimeric HA Binding: RLU,[11],9820 RLU
same,Trimeric HA Binding: RLU,[12],2640 RLU
same,Trimeric HA Binding: RLU,[13],46100 RLU
same,Trimeric HA Binding: RLU,[14],792 RLU
same,Trimeric HA Binding: RLU,[15],25200 RLU
same,Trimeric HA Binding: RLU,[16],43500 RLU
same,Trimeric HA Binding: RLU,[17],4340 RLU
same,Trimeric HA Binding: RLU,[18],41900 RLU
same,Trimeric HA Binding: RLU,[19],6640 RLU
same,Trimeric HA Binding: RLU,[20],19400 RLU
same,Trimeric HA Binding: RLU,[21],907 RLU
same,Trimeric HA Binding: RLU,[22],824 RLU
same,Trimeric HA Binding: RLU,[23],296 RLU
same,Trimeric HA Binding: RLU,[24],1600 RLU
same,Trimeric HA Binding: RLU,[25],1670 RLU
same,Trimeric HA Binding: RLU,[26],25000 RLU
same,Trimeric HA Binding: RLU,[27],10300 RLU
same,Trimeric HA Binding: RLU,[28],2950 RLU
same,ELISA virus binding (OD450),[29],0.19 OD450
